For assay [1], the target named is T1, recombinant human TSLP-his (human, UniProt Q969D9 29-159, biotin-labeled in the ELISAs).
T1 construct: In-house made; not shown: His tag at the C-terminus
The assay can be described thus: SPR Biacore; TSLP-his amine-coupled to CM5 chip, antibody as analyte; 1:1 Langmuir fit. As to the method:
Un-reacted moieties on the biosensor surface were blocked with ethanolamine. Then, serially diluted purified bispecific antibodies and the controls (2-fold serial dilution in HBS-EP⁺ buffer starting at 100 nM) were respectively flowed onto the chip at a flow rate of 30 μL/min. The antigen-antibody association kinetics was followed for 4 minutes and the dissociation kinetics was followed for 13 minutes.

For assay [2], the target named is T2, recombinant human IL4Rα-his (human, UniProt P24394 26-231, limits assumed, biotin-labeled in the capture ELISA).
T2 construct: In-house made; not shown: His tag at the C-terminus
The assay can be described thus: SPR Biacore T200; antibody captured on anti-human IgG CM5 chip, IL4Rα-his as analyte; 1:1 Langmuir fit. The gist of the method: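 Antibodies captured on anti-human IgG CM5 chip (bispecifics at 66.67 nM, controls 10 μg/mL), then serially diluted recombinant human IL4Rα-his (C-terminal His tag) in HBS EP flowed at 30 μL/min. Association and dissociation curves fit to 1:1 Langmuir model.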

Assay [3] concerns the target T1, recombinant human TSLP-his. Description: competitive ELISA: antibody pre-mixed with biotin human TSLP-his; blocked binding to coated TSLPR-Fc/IL7Ra-Fc. As to the method:
Briefly, 100 μL human TSLPR-Fc proteins (SEQ ID NO: 34-SEQ ID NO: 38 fusion, prepared in-house) at 1 μg/mL in PBS, and 100 μL human IL7Ra-Fc proteins (SEQ ID NO: 35-SEQ ID NO: 38 fusion, prepared in-house) at 1 μg/mL in PBS were coated on 96-well micro plates overnight at 4° C. The next day, plates were washed with wash buffer (PBS+0.05% Tween-20, PBST), and blocked with 5% w/v non-fatty milk in PBST for 2 hours at 37° C. Plates were then washed again using wash buffer.
After incubation at 37° C. for 40 minutes, plates were washed 4 times using wash buffer. […] Plates were washed again using wash buffer. Finally, TMB was added and the reaction was stopped using 1M H₂SO₄. The absorbance was read on a microplate reader using dual wavelength mode with 450 nm for TMB and 630 nm as the reference wavelength, then the OD (450-630) values were plotted against the antibody concentration. Data was analyzed using Graphpad Prism and IC₅₀ values were reported.
In general terms: An ELISA detects its analyte on a solid surface through an enzyme-linked reagent.

Assay [4] has as its target T2, recombinant human IL4Rα-his. The assay can be described thus: dual-binding ELISA: coated human IL4Rα-his, antibody titrated, detection with biotin human TSLP-his and SA-HRP; signal needs both antigens bound. The protocol: For the dual-binding ELISA, 96-well ELISA plates were firstly coated with 100 μL 1 μg/mL human IL4Rα-his protein (IL4Rα of SEQ ID NO: 33 with His tag at C terminus, prepared in-house) in PBS overnight at 4° C. ELISA plates were washed 4 times with wash buffer (PBS+0.05% Tween-20, PBST) and then blocked with 200 μL/well blocking buffer (5% w/v non-fatty milk in PBST) for 2 hours at 37° C. […] ELISA plates were washed again and incubated with SA-HRP (100 μl/well) for 40 minutes at 37° C. After the final wash, 100 μL/well TMB (Innoreagents) was added. The reaction was stopped 15 minutes later at room temperature with 50 μL/well 1M H₂SO₄, and the absorbance was read on a microplate reader using dual wavelength mode with 450 nm for TMB and 630 nm as the reference wavelength. The OD (450-630) values were plotted against antibody concentration. Data was analyzed using Graphpad Prism and EC₅₀ values were reported.

Assay [5] deals with T1, recombinant human TSLP-his. The assay can be described thus: capture ELISA: antibody captured on anti-human IgG Fc F(ab')2, biotin human TSLP-his, SA-HRP. The protocol:
Briefly, 96-well micro plates were coated with 100 μL 2 μg/mL AffiniPure F(ab′)₂ Fragment Goat Anti-Human IgG, Fey fragment specific (Jackson Immuno Research, Cat #109-006-008) in PBS and incubated overnight at 4° C. Plates were washed 4 times with wash buffer (PBS+0.05% Tween-20, PBST) and then blocked with 200 μL/well blocking buffer (5% w/v non-fatty milk in PBST) for 2 hours at 37° C. […] After the final wash, the plates were incubated with 100 μL/well TMB (Innoreagents). The reaction was stopped 15 minutes later at room temperature with 50 μL/well 1M H₂SO₄, and the absorbance of each well was read on a microplate reader using dual wavelength mode with 450 nm for TMB and 630 nm as the reference wavelength. The OD (450-630) values were plotted against antibody concentration. Data was analyzed using Graphpad Prism and EC₅₀ values were reported.

B1: BSI-502-003 (bispecific antibody, human IgG1, kappa)
heavy: EVQLVESGGGLVQPGGSLRLSCAASGFTFSTYGMSWVRQAPGKGLVWVATINSNGGSTSYPDSVKGRFTISRDNAKNTLYLQMNSLRAEDTAVYYCARFFRFRNAMDYWGQGTLVTVSSGGGGSGGGGSGGGGSGGGGSDIQMTQSPSSLSASVGDRVTITCRTSENIYSYLAWYQQKPGKAPKFLVYNAKTLAEGVPSRFSGSGSGTDFTLTISSLQPEDFATYYCQHYYGPPTWTFGQGTKVEIKGGGGSGGGGSQVQLVQSGAEVKKPGASVKVSCKASGYTFTTYWMHWVRQAPGQGLEWMGVIDPSDSDTTYNQKFKGRVTMTRDTSTSTVYMELSSLRSEDTAVYYCTRSLDGYYDYWGQGTLVTVSSASTKGPSVFPLAPSSKSTSGGTAALGCLVKDYFPEPVTVSWNSGALTSGVHTFPAVLQSSGLYSLSSVVTVPSSSLGTQTYICNVNHKPSNTKVDKKVEPKSCDKTHTCPPCPAPEAQGGPSVFLFPPKPKDTLYITREPEVTCVVVDVSHEDPEVKFNWYVDGVEVHNAKTKPREEQYNSTYRVVSVLTVLHQDWLNGKEYKCQVSNKALPAPIEKTISKAKGQPREPQVYTLPPSRDELTKNQVSLTCLVKGFYPSDIAVEWESNGQPENNYKTTPPVLDSDGSFFLYSKLTVDKSRWQQGNVFSCSVMHEALHNHYTQKSLSLSPG
light: DIQMTQSPSSLSASVGDRVTITCRPTENIYSYLAWYQQKPGKAPKLLIYFARTLAEGVPSRFSGSGSGTDFTLTISSLQPEDFATYYCQHHYGTPWTFGGGTKVEIKRTVAAPSVFIFPPSDEQLKSGTASVVCLLNNFYPREAKVQWKVDNALQSGNSQESVTEQDSKDSTYSLSSTLTLSKADYEKHKVYACEVTHQGLSSPVTKSFNRGEC
notes: hu1C5F12E9-V8 IgG with an anti-IL4R scFv (huC2C1A1A1-V15, VH-VL) at the N-terminus of the heavy chain; AQQ and YTE already stand in the entry
For the molecule B1, in assay [1], the Kd – broadly, a measure of binding affinity in units of concentration – worked out at 0.000317 nM; the koff (commonly the rate constant with which the complex falls apart) came out at 1.82e-07 s⁻¹; the kon (commonly a measure of how fast the partners come together) came to 574000 M⁻¹ s⁻¹. In assay [2], the Kd came out at 2.43 nM, the koff is 0.000534 s⁻¹ and the kon is 220000 M⁻¹ s⁻¹. For the same molecule, the IC50 (usually the midpoint of a concentration-inhibition curve) in assay [3] was 0.134 nM. In addition, the EC50 (commonly the concentration that produces a half-maximal response) in assay [4] stood at 0.0491 nM.

B2: BSI-502-001 (bispecific antibody, human IgG1, kappa)
heavy: EVQLVESGGGLVQPGGSLRLSCAASGFTFSTYGMSWVRQAPGKGLVWVATINSNGGSTSYPDSVKGRFTISRDNAKNTLYLQMNSLRAEDTAVYYCARFFRFRNAMDYWGQGTLVTVSSASTKGPSVFPLAPSSKSTSGGTAALGCLVKDYFPEPVTVSWNSGALTSGVHTFPAVLQSSGLYSLSSVVTVPSSSLGTQTYICNVNHKPSNTKVDKKVEPKSCDKTHTCPPCPAPEAQGGPSVFLFPPKPKDTLYITREPEVTCVVVDVSHEDPEVKFNWYVDGVEVHNAKTKPREEQYNSTYRVVSVLTVLHQDWLNGKEYKCQVSNKALPAPIEKTISKAKGQPREPQVYTLPPSRDELTKNQVSLTCLVKGFYPSDIAVEWESNGQPENNYKTTPPVLDSDGSFFLYSKLTVDKSRWQQGNVFSCSVMHEALHNHYTQKSLSLSPGKGGGGSGGGGSQVQLVQSGAEVKKPGASVKVSCKASGYTFTTYWMHWVRQAPGQGLEWMGVIDPSDSDTTYNQKFKGRVTMTRDTSTSTVYMELSSLRSEDTAVYYCTRSLDGYYDYWGQGTLVTVSSGGGGSGGGGSGGGGSGGGGSDIQMTQSPSSLSASVGDRVTITCRPTENIYSYLAWYQQKPGKAPKLLIYFARTLAEGVPSRFSGSGSGTDFTLTISSLQPEDFATYYCQHHYGTPWTFGGGTKVEIK
light: DIQMTQSPSSLSASVGDRVTITCRTSENIYSYLAWYQQKPGKAPKFLVYNAKTLAEGVPSRFSGSGSGTDFTLTISSLQPEDFATYYCQHYYGPPTWTFGQGTKVEIKRTVAAPSVFIFPPSDEQLKSGTASVVCLLNNFYPREAKVQWKVDNALQSGNSQESVTEQDSKDSTYSLSSTLTLSKADYEKHKVYACEVTHQGLSSPVTKSFNRGEC
notes: huC2C1A1A1-V15 IgG with an anti-TSLP scFv (hu1C5F12E9-V8, VH-VL) at the C-terminus of the heavy chain
In the case of B2, the Kd in assay [1] was less than 0.0246 nM; in assay [2] it was 3.09 nM. Further, the figures for the koff in assay [1] and in assay [2] were less than 1e-05 s⁻¹ and 0.000497 s⁻¹, respectively. Further, the kon in assay [1] worked out at 407000 M⁻¹ s⁻¹; in assay [2], 161000 M⁻¹ s⁻¹. Further, the results for the EC50 in assay [5] and in assay [4] were 0.169 nM and 0.0349 nM, respectively. In addition, the IC50 in assay [3] turned out to be 0.257 nM.

B3: BSI-502-002 (bispecific antibody, human IgG1, kappa)
heavy: EVQLVESGGGLVQPGGSLRLSCAASGFTFSTYGMSWVRQAPGKGLVWVATINSNGGSTSYPDSVKGRFTISRDNAKNTLYLQMNSLRAEDTAVYYCARFFRFRNAMDYWGQGTLVTVSSASTKGPSVFPLAPSSKSTSGGTAALGCLVKDYFPEPVTVSWNSGALTSGVHTFPAVLQSSGLYSLSSVVTVPSSSLGTQTYICNVNHKPSNTKVDKKVEPKSCDKTHTCPPCPAPEAQGGPSVFLFPPKPKDTLYITREPEVTCVVVDVSHEDPEVKFNWYVDGVEVHNAKTKPREEQYNSTYRVVSVLTVLHQDWLNGKEYKCQVSNKALPAPIEKTISKAKGQPREPQVYTLPPSRDELTKNQVSLTCLVKGFYPSDIAVEWESNGQPENNYKTTPPVLDSDGSFFLYSKLTVDKSRWQQGNVFSCSVMHEALHNHYTQKSLSLSPGKGGGGSGGGGSDIQMTQSPSSLSASVGDRVTITCRPTENIYSYLAWYQQKPGKAPKLLIYFARTLAEGVPSRFSGSGSGTDFTLTISSLQPEDFATYYCQHHYGTPWTFGGGTKVEIKGGGGSGGGGSGGGGSGGGGSQVQLVQSGAEVKKPGASVKVSCKASGYTFTTYWMHWVRQAPGQGLEWMGVIDPSDSDTTYNQKFKGRVTMTRDTSTSTVYMELSSLRSEDTAVYYCTRSLDGYYDYWGQGTLVTVSS
light: DIQMTQSPSSLSASVGDRVTITCRTSENIYSYLAWYQQKPGKAPKFLVYNAKTLAEGVPSRFSGSGSGTDFTLTISSLQPEDFATYYCQHYYGPPTWTFGQGTKVEIKRTVAAPSVFIFPPSDEQLKSGTASVVCLLNNFYPREAKVQWKVDNALQSGNSQESVTEQDSKDSTYSLSSTLTLSKADYEKHKVYACEVTHQGLSSPVTKSFNRGEC
notes: huC2C1A1A1-V15 IgG with an anti-TSLP scFv (VL-VH) at the C-terminus of the heavy chain; AQQ and YTE already stand in the entry
As to B3, the Kd in assay [1] is less than 0.0472 nM; in assay [2], 1.51 nM. In addition, the koff in assay [1] is less than 1e-05 s⁻¹; in assay [2], 0.000487 s⁻¹. Also, the values for the kon in assay [1] and in assay [2] were 212000 M⁻¹ s⁻¹ and 323000 M⁻¹ s⁻¹, respectively. For the same molecule, the EC50 in assay [5] is 0.369 nM; in assay [4], 0.136 nM. In assay [3], the IC50 came to 0.758 nM.

For the origin of these results see patent US20260109758A1 (BIOSION, published 2026).
